Biological target: OSCAR specific ligand expressed on the surface of primary murine osteoblast cells (murine)
Experiment: cell-based or functional assay

**Q.** Which results are given for “soluble murine OSCAR-Ig fusion polypeptide (extracellular domain of murine OSCAR fused to the Fc region of human IgG1) (Fc fusion)”?
**A.** dentine resorption pits per slice (pits per slice): 7; inhibition of dentine resorption (fold): > 10 fold

Reference: patent US20040092714A1
